Data published in patent publication US20250375530A1 (ALMAC DISCOVERY, published 2025).

Key:
human ROR1-Fc (CHO) [1] = biological target: T1, human ROR1-Fc (CHO) (human); assay: ELISA, plate coated with human ROR1-hFc, HisMyc-tagged VNAR at a single 5 ug/mL, Abs 450 nm; no blank bar shown
T1 construct: also called hROR1-Fc; huROR1-Fc

mouse ROR1-Fc (CHO) = biological target: T2, mouse ROR1-Fc (CHO) (mouse); assay: ELISA, mROR1-hFc coated
T2 construct: also called mROR1-hFc; mROR1

human ROR1-Fc (CHO) [2] = biological target: T1, human ROR1-Fc (CHO); assay: ELISA dose response, plate coated with hROR1-Fc, HisMyc-tagged VNAR 0-5 ug/mL (linear axis), Abs 450 nm
human ROR1-Fc (CHO) [3] = biological target: T1, human ROR1-Fc (CHO); assay: BLI, hROR1; MMAE conjugate

T1 sequence (chain, as listed by the source limits assumed): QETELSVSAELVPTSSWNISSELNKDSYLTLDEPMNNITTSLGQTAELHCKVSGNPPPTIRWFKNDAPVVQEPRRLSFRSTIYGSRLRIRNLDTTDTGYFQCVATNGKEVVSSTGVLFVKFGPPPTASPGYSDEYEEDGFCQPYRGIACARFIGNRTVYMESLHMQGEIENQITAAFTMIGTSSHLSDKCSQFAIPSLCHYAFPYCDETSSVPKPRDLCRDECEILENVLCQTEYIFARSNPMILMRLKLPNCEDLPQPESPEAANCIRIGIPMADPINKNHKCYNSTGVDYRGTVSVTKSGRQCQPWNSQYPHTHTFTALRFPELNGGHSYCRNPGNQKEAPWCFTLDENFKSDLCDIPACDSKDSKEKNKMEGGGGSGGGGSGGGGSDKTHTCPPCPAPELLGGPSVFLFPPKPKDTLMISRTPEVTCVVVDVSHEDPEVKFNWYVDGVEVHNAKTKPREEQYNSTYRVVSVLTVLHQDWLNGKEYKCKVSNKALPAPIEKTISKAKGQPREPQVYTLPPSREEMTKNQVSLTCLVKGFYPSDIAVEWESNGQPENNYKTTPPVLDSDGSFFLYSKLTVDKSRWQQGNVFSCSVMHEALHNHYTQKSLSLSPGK
T2 sequence (chain, as listed by the source limits assumed): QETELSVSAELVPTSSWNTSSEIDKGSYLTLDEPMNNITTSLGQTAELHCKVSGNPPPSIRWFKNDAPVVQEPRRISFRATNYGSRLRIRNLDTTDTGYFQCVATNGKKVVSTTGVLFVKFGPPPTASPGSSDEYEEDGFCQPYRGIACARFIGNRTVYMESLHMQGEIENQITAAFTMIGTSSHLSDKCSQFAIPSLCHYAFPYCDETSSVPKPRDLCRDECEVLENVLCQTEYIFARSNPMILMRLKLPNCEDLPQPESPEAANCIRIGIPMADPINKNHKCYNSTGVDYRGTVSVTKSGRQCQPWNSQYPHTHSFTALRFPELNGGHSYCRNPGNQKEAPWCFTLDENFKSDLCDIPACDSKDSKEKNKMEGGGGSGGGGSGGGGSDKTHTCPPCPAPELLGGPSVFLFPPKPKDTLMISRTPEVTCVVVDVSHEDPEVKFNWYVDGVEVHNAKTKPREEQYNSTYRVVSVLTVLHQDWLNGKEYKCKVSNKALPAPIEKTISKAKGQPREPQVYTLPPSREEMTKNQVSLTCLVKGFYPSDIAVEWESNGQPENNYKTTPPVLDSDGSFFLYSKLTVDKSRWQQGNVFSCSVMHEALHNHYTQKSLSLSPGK

binding result (human ROR1-Fc (CHO) [1]) | binding result (mouse ROR1-Fc (CHO)) | binding result (human ROR1-Fc (CHO) [2]) | Kd (human ROR1-Fc (CHO) [3]) | Binder
binds | binds |  |  | P3A1 G1 AE3.S (VNAR, VNAR; entry includes the HisMyc tag) VNAR: TRVDQSPSSLSASVGDRVTITCVLTGTRYGLYSSTYWYRKNPGSSDEERISISGRYSESVNKGTKSFTLTISSLQPEDSATYYCRAREARHPWLRQWYDGAGTKVEIKQ
 |  | binds |  | P3A1 G1 NAG8.S (VNAR, VNAR; entry includes the HisMyc tag) VNAR: TRVDQSPSSLSASVGDRVTITCVLTGTKYGLYASTYWYRKNPGSPNKDRMIIGGRYSESVNNGTKSFTLTISSLQPEDSATYYCRAREARHPWLRQWYDGAGTKVEIKQ
binds | binds |  |  | P3A1 G1 NAC6.S (VNAR, VNAR; entry includes the HisMyc tag) VNAR: TRVDQSPSSLSASVGDRVTITCVLTDTRYALYSSTYWYRKNPGSTDEERISIGGRYSESVNKGSKSFTLTISSLQPEDSATYYCRAREARHPWLRQWYDGAGTKVEIKQ
 |  | binds |  | P3A1 G1 AF7.S (VNAR, VNAR; entry includes the HisMyc tag) VNAR: TRVDQSPSSLSASVGDRVTITCVLTGTKYGLYASTYWYRKNPGSTDKERIIIGGRYSESVNNRSKSFTLTISSLQPEDSATYYCRAREARHPWLRQWYDGAGTKVEIKQ
 |  |  | 0.76 nM | G3CP G4-P3A1G1AE3 MA-vc-PAB-MMAE conjugate (Cys linker) (VNAR, not shown: small tags and cut ends, MA-vc-PAB-MMAE on the single cysteine of the linker PGVQPCPGGGGGS, DAR 1.0) TRVDQSPSSLSASVGDRVTITCVLTDANYGLAATYWYRKNPGSSNKERISISGRYSESVNKGTMSFTLTISSLQPEDSATYYCRAYPWGAGAPYNVQWYDGAGTKVEIKPGVQPCPGGGGGSTRVDQSPSSLSASVGDRVTITCVLTGTRYGLYSTYWYRKNPGSSDEERISISGRYSESVNKGTKSFTLTISSLQPEDSATYYCRAREARHPWLRQWYDGAGTKVEIK
